Experimental findings from the nanobody polyreactivity screen of Harvey et al. (2022) are described below.

The data set can be described thus: yeast display, Sf9 membrane polyspecificity reagent, FACS + sequencing; frameworks hold sequencing errors. The procedure, abridged:
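After 36–48 hours of galactose induction, yeast (Saccharomyces cerevisiae BJ5465) displaying a synthetic nanobody library were stained at 4 °C for 1 hour with 10% biotinylated, detergent-solubilized Sf9 membrane reagent. Streptavidin microbeads enriched the stained cells before FACS sorting into low and high (top ~1%) gates on anti-HA and streptavidin fluorescence. Each clone's polyreactivity label reflects its gate of origin.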
Turning to “QVQLVESGGGLVQAGGSLRLTCAASGNTFYGKTIGWYRQAPGKERELVAAIRFTGGSTTYADSVKGRFTISRDNAKITVYLQLNRLKPEDTAVYYCNTVWVSFSSIYHEYDYWGQGTQVTVSS”, the “polyreactivity (PSR sort gate)” value is given as “low polyreactivity”. As for “QVQLVESGGGLVQAGGSLRLTCAASGRIFAVYAMGWYRQAPGKERELVATISSSGSTHYADSVKGRFTISRDNAKNTVYLQMNSLKPEDTAVYYCNAGGSELKLGHDYWGQGTQVTVSS”, the entry is “low polyreactivity”.

Turning to “QVQLVESGGGLVQAGGSLRLTCAASGRIFGYYAKGWYSQAPGKERELGATITFGGGSTCYADSVKGRFTISRDNAKKTVYLQMNSLKPEDTAVYYCAADSGYLGIYGDEYSWGQGTQVTVSS”, the “polyreactivity (PSR sort gate)” value was “low polyreactivity”. In the case of “QVQLVESGGGLVQAGGSLRLTCAASGRIFIYNTMGWYRQAPGTERELVATISSGGRTYYADSVKGRFTISRDNAKNTVYFQMNSLKPEDTAVYYCNARRRYYSVWRGWDNELDYWGQGTQVTVSS” it was “high polyreactivity”; in that of “QVQLVESGGGLVQAGGSLRLTCAASGRIFKQYAMGWYRQAPGKEMELVATISSGGDTNYADSVKGRFTISRDNAKNTVYLQMNSLKPEDTAVYFCAAGDIYYAEYEYWGKGTQVTVSS”, “low polyreactivity”. Regarding “QVQLVESGGGLVQAGGSLRLTCAASGRIFSFNAMVSYRKATGKERELVATIRTDGTTNYADSVKGRFTISRDNAKNTVYLQMNSMKPEDTAVYYCATDSGWSTYDFWGQGTQVTVSS”, the “polyreactivity (PSR sort gate)” value is recorded as “high polyreactivity”. In the case of “QVQLVESGGGLVQAGGSLRLTCAASGRIFSNDKGWYRQAPGKERELVAAITWSGGTTHYADSVKGRFTISRDNAKNTVYLQMNSLKPEDTAVYYCARAGGHAYSYWGQGTQVTVSS” it was “low polyreactivity”. With “QVQLVESGGGLVQAGGSLRLTCAASGRIFSRYAMGWYRQAPGKERELVASITRGGSTYADSVKGRFTISRDNAKNTVYLQMNSLKPEDTAVYYCNATYFTRYRQYDYWGQGTQVTVSS”, the “polyreactivity (PSR sort gate)” value was “low polyreactivity”.

For “QVQLVESGGGLVQAGGSLRLTCAASGRIFTRYSMGWYRKAPGKEREFVAAITNSGASTYYADSVKGRFTISRDNAKITVYLQMNSLKPEDTAVYYCAGDGPYWWDYDYWGQGTQETVSS”, the “polyreactivity (PSR sort gate)” value is “high polyreactivity”. As for “QVQLVESGGGLVQAGGSLRLTCAASGRIFVKNAMGWYRQAPGKERELVATICSGGNTNYADSVKGRFTISRDNAKNTVYLQMNSLKPEDTAVYYCAAVWDLGDYELPYDYWGLGTQVTVSS”, the entry is “low polyreactivity”; as for “QVQLVESGGGLVQAGGSLRLTCAASGRIIKLYAMGWYRQAPGKETEFVAAITWSGGRTYYADSVKGRFTISRDNAKNTVYLQMNSLTPEDTAVYSCAAYDTYDWYDYWGQGTQVTVSS”, “high polyreactivity”. In the case of “QVQLVESGGGLVQAGGSLRLTCAASGRILGYYAMGWYRPAPGKERELVAAITYSGGSTYYADSVKGRFSISRDNAKNTVYLQMNILKPEDTAVYYCAADKLLLGLYGSTWNDYWGQGTQVTVSS” it was “low polyreactivity”; in that of “QVQLVESGGGLVQAGGSLRLTCAASGRTFASNDMGWYRQAPGKEMELVADINNGARTYYADSVKGRFTISRDNAKNTVYLQMNSLKPEDTAVYYCAARRYGKQVRLYGYWGQGTQVTVSS”, “high polyreactivity”.

As for “QVQLVESGGGLVQAGGSLRLTCAASGRTFGPYAMGWYRPAPGKERELVAAIRYIDDSTFYADSVKGRFTISRDNAKNTVYLQMNSLKPEDTAVYYCAAQRRVVGRHGLSLIRYDYWGQGTQVTVSS”, the “polyreactivity (PSR sort gate)” value is recorded as “low polyreactivity”.

As to “QVQLVESGGGLVQAGGSLRLTCAASGRTFKSYTMGWYRQAPGKEREFVAAISSRGGNTYYADSVKGRFTISRDNAKNTVYLQMNSLKPEDTAVYYCAAESSYWSFPTYDYWGQGTQVTVSS”, the “polyreactivity (PSR sort gate)” value is listed as “high polyreactivity”. On to “QVQLVESGGGLVQAGGSLRLTCAASGRTFPLNVMGWYRQAPGKERELVAAITVSAGSTYYADSVKGRFTISRDNAKNTVYLQMNSLKPEDTAVYYCAKATSSFYHYRYDYWGQGTQVTVSS”, for which the “polyreactivity (PSR sort gate)” value is on record as “low polyreactivity”.

“QVQLVESGGGLVQAGGSLRLTCAASGRTFQYYSMGWYRQAPGKERELVAAISQDGGSTYYADSVKGRFTISRDNAKNTVYLQMNSLKPEDTAVYYCAARVDEYAYYALDDYWGQGTQVTVSS”: the “polyreactivity (PSR sort gate)” value is “low polyreactivity”. In the case of “QVQLVESGGGLVQAGGSLRLTCAASGRTFSTYVMGWYRQAPGKEREFVAAISTGGGSTYYADSVKGRFTISRDNAKNTVYLQMNSLKPEDTAVYYCAAKRKIRGYGPYEFWGQGTQVTVSS” it was “high polyreactivity”; in that of “QVQLVESGGGLVQAGGSLRLTCAASGRTFVNYAMGWYRQAPGKERELVAAISTSGGSTYYADSVKGRFTISRDNAKNTVYLQMNSLKPEDTAVYYCNKVRYLPDNLRQVTFDYWGQGTQVTVSS”, “low polyreactivity”; in that of “QVQLVESGGGLVQAGGSLRLTCAASGRTFWYYAMGWYRQAPGKERELVAAISRNGGSTYYEDSVKGRFTISRDNAKNTVYLQMNSLKPEDTAVYYCAATLLRDYDYWGQGTQVTVSS”, “high polyreactivity”. In the case of “QVQLVESGGGLVQAGGSLRLTCAASGRTFYYYAMGWYRQAPGKESELVAAINTRGVSTYYADSVKGRFTISRDNAKNTVYLQMNSLKPEDTAVYYCNKGFSYGRDYWGQGTQVTVSS” it was “high polyreactivity”; in that of “QVQLVESGGGLVQAGGSLRLTCAASGRTLGGYTMGWSRQAPGKERELVAAITTGGSTNYADSVKGRFTISRDNAKNTVYLQMNSLKPEDTAVYYCATELVFDKRYWYDYWGQGTQVTVSS”, “low polyreactivity”; in that of “QVQLVESGGGLVQAGGSLRLTCAASGRTSNGYAMGWYRQAPGNERELVAAYADSVKGRFTISRDNAKNTVYLQMNSLKPEETAVYYCNADYDPVSRVGYVYWAYYYWGQGTQVTVSS”, “low polyreactivity”. In the case of “QVQLVESGGGLVQAGGSLRLTCAASGSIFEVNAMGWYRQAPGKERELVAGISNADSTNYADSVKGRFTISRDNAKNTVYLQMNSLKPEDTAVYYCATDLDRDLPKDLLGPEYDYWGQGTQVTVSS”, the “polyreactivity (PSR sort gate)” value is listed as “low polyreactivity”. In the case of “QVQLVESGGGLVQAGGSLRLTCAASGSIFGWYVMGWYIPAPGKERELVAAISSVGSTYYADSVKGRFTISRDNAKNTVYLQMKSLKREDTAVYYCAKLRYPYLFWDDSEYWGQGTQVTVSS” it was “low polyreactivity”; in that of “QVQLVESGGGLVQAGGSLRLTCAASGSIFLSYAMGWYRQPPGKDRELVAAISGGVNTYYADSVKGSFTISRDNAKNTVYLQMNSLKPEDTAVYYCYAVPHIYAEGTAYNYWGQGTQVTVSS”, “low polyreactivity”; in that of “QVQLVESGGGLVQAGGSLRLTCAASGSIFPFYAKGWYRQATGKERELVAAISDSGGDTYYADSVKGRFTISRDNAKNTVYLQMNSLKPEDTAVYYCAADCFYNSFNYWGQGTQVTVSS”, “low polyreactivity”. As for “QVQLVESGGGLVQAGGSLRLTCAASGSIFTTNAKGWYRPAPGTERELVASITWSGGSTYADSVKGRFTISRDNAKYTVYLQMNILKPEDTAVYYGATDPFYPVPPEYEYWGQGTQVTVSS”, the entry is “low polyreactivity”; as for “QVQLVESGGGLVQAGGSLRLTCAASGSIFWDNAMGWYRQAPGKERALFAAITSSGGSTHYADSVKGRFTISRDNAKNTVYLQMYSLKPEDTAVYYCAARRYYGVYYAFLYWGQGTQVTVSS”, “high polyreactivity”; as for “QVQLVESGGGLVQAGGSLRLTCAASGSIFWGNAMGWYRQAPGKERELVATISWSAGSTYYADSVKGRFTISRDNAKNTVYLQMNSLKPEDTGVYYCATDFRHSTLYYYWGQRTQVTVSS”, “low polyreactivity”.
